According to ChEMBL document CHEMBL2177050, “Understanding the binding of daunorubicin and doxorubicin to NADPH-dependent cytosolic reductases by computational methods” (Eur J Med Chem, 2012):
Each block holds one molecule with its values, some of them ahead of it.

What was measured:
[1] = target: T1, Aldo-keto reductase family 1 member A1 (Homo sapiens) (UniProt P14550); test: Activity of human AKR1A1 expressed in Escherichia coli BL21 assessed per mg protein in presence of 0.2 mM NADPH
T1 sequence (whole entry): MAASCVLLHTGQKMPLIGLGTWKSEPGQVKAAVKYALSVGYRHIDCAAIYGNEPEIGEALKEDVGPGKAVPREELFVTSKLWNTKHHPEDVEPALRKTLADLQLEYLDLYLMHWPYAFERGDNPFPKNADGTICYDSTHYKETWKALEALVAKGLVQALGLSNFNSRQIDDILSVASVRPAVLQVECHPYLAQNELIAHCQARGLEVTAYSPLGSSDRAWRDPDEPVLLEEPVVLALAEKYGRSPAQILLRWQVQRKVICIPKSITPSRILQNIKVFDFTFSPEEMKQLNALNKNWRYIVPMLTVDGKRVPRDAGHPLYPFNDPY

[2] = substrate: COc1cccc2c1C(=O)c1c(O)c3c(c(O)c1C2=O)C[C@@](O)(C(=O)CO)C[C@@H]3O[C@H]1C[C@H](N)[C@H](O)[C@H](C)O1; test: (§1) Activity of human recombinant His6-tagged carbonyl reductase 1 expressed in Escherichia coli BL21(DE3) using menadione as substrate by Michaelis-Menten plot analysis
[3] = substrate: COc1cccc2c1C(=O)c1c(O)c3c(c(O)c1C2=O)C[C@@](O)(C(C)=O)C[C@@H]3O[C@H]1C[C@H](N)[C@H](O)[C@H](C)O1; test: as §1
[4] = substrate: COc1cccc2c1C(=O)c1c(O)c3c(c(O)c1C2=O)C[C@@](O)(C(=O)CO)C[C@@H]3O[C@H]1C[C@H](N)[C@H](O)[C@H](C)O1; test: (§2) Activity of human carbonyl reductase 1
[5] = substrate: COc1cccc2c1C(=O)c1c(O)c3c(c(O)c1C2=O)C[C@@](O)(C(C)=O)C[C@@H]3O[C@H]1C[C@H](N)[C@H](O)[C@H](C)O1; test: as §2
[6] = substrate: COc1cccc2c1C(=O)c1c(O)c3c(c(O)c1C2=O)C[C@@](O)(C(=O)CO)C[C@@H]3O[C@H]1C[C@H](N)[C@H](O)[C@H](C)O1; test: Activity of His-tagged carbonyl reductase 1
[7] = substrate: COc1cccc2c1C(=O)c1c(O)c3c(c(O)c1C2=O)C[C@@](O)(C(=O)CO)C[C@@H]3O[C@H]1C[C@H](N)[C@H](O)[C@H](C)O1; test: Activity of GST-tagged aldo-keto reductase 1A1

Activity [1]: 120 nmol/min
Molecule: COc1cccc2c1C(=O)c1c(O)c3c(c(O)c1C2=O)C[C@@](O)(C(C)=O)C[C@@H]3O[C@H]1C[C@H](N)[C@H](O)[C@H](C)O1

Activity [1]: 11 nmol/min
Molecule: COc1cccc2c1C(=O)c1c(O)c3c(c(O)c1C2=O)C[C@@](O)(C(=O)CO)C[C@@H]3O[C@H]1C[C@H](N)[C@H](O)[C@H](C)O1

B1: Carbonyl reductase [NADPH] 1 (Homo sapiens), P16152 (protein)
chain: MSSGIHVALVTGGNKGIGLAIVRDLCRLFSGDVVLTARDVTRGQAAVQQLQAEGLSPRFHQLDIDDLQSIRALRDFLRKEYGGLDVLVNNAGIAFKVADPTPFHIQAEVTMKTNFFGTRDVCTELLPLIKPQGRVVNVSSIMSVRALKSCSPELQQKFRSETITEEELVGLMNKFVEDTKKGVHQKEGWPSSAYGVTKIGVTVLSRIHARKLSEQRKGDKILLNACCPGWVRTDMAGPKATKSPEEGAETPVYLALLPPDAEGPHGQFVSEKRVEQW
Km [2]: 287 µM | kcat [2]: 0.21 s⁻¹ | Km [3]: 51 µM | kcat [3]: 1.94 s⁻¹ | Km [4]: 90 µM | Km [5]: 108 µM | kcat [5]: 1.27 s⁻¹ | Km [6]: 167 µM | kcat [6]: 0.0103 s⁻¹

B2: Aldo-keto reductase family 1 member A1 (Homo sapiens), P14550 (protein)
chain: MAASCVLLHTGQKMPLIGLGTWKSEPGQVKAAVKYALSVGYRHIDCAAIYGNEPEIGEALKEDVGPGKAVPREELFVTSKLWNTKHHPEDVEPALRKTLADLQLEYLDLYLMHWPYAFERGDNPFPKNADGTICYDSTHYKETWKALEALVAKGLVQALGLSNFNSRQIDDILSVASVRPAVLQVECHPYLAQNELIAHCQARGLEVTAYSPLGSSDRAWRDPDEPVLLEEPVVLALAEKYGRSPAQILLRWQVQRKVICIPKSITPSRILQNIKVFDFTFSPEEMKQLNALNKNWRYIVPMLTVDGKRVPRDAGHPLYPFNDPY
Km [7]: 247 µM | kcat [7]: 0.000667 s⁻¹
